# Reference: US20110318339A1 (FABRUS, published 2011)
# Changes are numbered by the printed parent chain. Numbers in names are those of the source.
# B1: Fab VH1-46_IGHD6-6*01_IGHJ1*01 S102A/S103P/S104F/H111F I51V/N52L/S54T/G56H & L6_IGKJ1*01 S28N/S30D/S31H (Fab, V domains shown)
# VH: QVQLVQSGAEVKKPGASVKVSCKASGYTFTSYYMHWVRQAPGQGLEWMGIVLPTGHSTSYAQKFQGRVTMTRDTSTSTVYMELSSLRSEDTAVYYCAREEYAPFSAEYFQFWGQGTLVTVSS
# VL: EIVLTQSPATLSLSPGERATLSCRASQNVDHYLAWYQQKPGQAPRLLIYDASNRATGIPARFSGSGSGTDFTLTISSLEPEDFAVYYCQQRSNWPPWTFGQGTKVEIKR
# notes: Fab made in E. coli: VH on CH1 with His6 and Flag tags (Plasmid A), VL on kappa CL (Plasmid C); also called H: APFF VLTH & L: NDH
# B2: Fab VH1-46_IGHD6-6*01_IGHJ1*01 S102A/S103P/S104F/H111F N52L/S54T/G56H & L6_IGKJ1*01 S28N/S30D/S31H S52L/A55G (Fab, V domains shown)
# VH: B1 VH with V51I
# VL: B1 VL with S52L, A55G
# notes: Fab made in E. coli: VH on CH1 with His6 and Flag tags (Plasmid A), VL on kappa CL (Plasmid C); also called H: APFF LTH & L: NDH LG
# B3: Fab VH1-46_IGHD6-6*01_IGHJ1*01 S102A/S103P/S104F/H111F N52L/S54T/G56H & L6_IGKJ1*01 S28N/S30D/S31H (Fab, V domains shown)
# VH: B1 VH with V51I
# VL: B1 VL
# notes: Fab made in E. coli: VH on CH1 with His6 and Flag tags (Plasmid A), VL on kappa CL (Plasmid C); also called H: APFF LTH & L: NDH
# B4: Fab VH5-51_IGHD5-18*01>3_IGHJ4*01 G100K/G104T & V3-4_IGLJ1*01 (Fab, V domains shown)
# VH: EVQLVQSGAEVKKPGESLKISCKGSGYSFTSYWIGWVRQMPGKGLEWMGIIYPGDSDTRYSPSFQGQVTISADKSISTAYLQWSSLKASDTAMYYCARRKYSYTYDYFDYWGQGTLVTVSS
# VL: QTVVTQEPSFSVSPGGTVTLTCGLSSGSVSTSYYPSWYQQTPGQAPRTLIYSTNTRSSGVPDRFSGSILGNKAALTITGAQADDESDYYCVLYMGSGISYVFGTGTKVTVL
# notes: Fab made in E. coli: VH on CH1 with His6 and Flag tags (Plasmid A), VL on lambda CL (Plasmid E); also called H: KT & L: wt
# B5: Fab VH5-51_IGHD5-18*01>3_IGHJ4*01 G100K/G104T G24T/S28R/G35V & V3-4_IGLJ1*01 M94R/S96M (Fab, V domains shown)
# VH: B4 VH with G24T, S28R, G35V
# VL: B4 VL with M94R, S96M
# notes: Fab made in E. coli: VH on CH1 with His6 and Flag tags (Plasmid A), VL on lambda CL (Plasmid E); also called H: KT TRV & L: RM; KT TRV-V3-4 RM
# B6: Fab VH5-51_IGHD5-18*01>3_IGHJ4*01 G100K/G104T S28R & V3-4_IGLJ1*01 (Fab, V domains shown)
# VH: B4 VH with S28R
# VL: B4 VL
# notes: Fab made in E. coli: VH on CH1 with His6 and Flag tags (Plasmid A), VL on lambda CL (Plasmid E); also called H: KT S28R & L: wt
# B7: Fab VH5-51_IGHD5-18*01>3_IGHJ4*01 G100K/G104T G24L/S28R/G35V & V3-4_IGLJ1*01 (Fab, V domains shown)
# VH: B4 VH with G24L, S28R, G35V
# VL: B4 VL
# notes: Fab made in E. coli: VH on CH1 with His6 and Flag tags (Plasmid A), VL on lambda CL (Plasmid E); also called H: KT LRV & L: wt
# B8: Fab VH5-51_IGHD5-18*01>3_IGHJ4*01 G100K/G104T & V3-4_IGLJ1*01 M94R/S96M (Fab, V domains shown)
# VH: B4 VH
# VL: B4 VL with M94R, S96M
# notes: Fab made in E. coli: VH on CH1 with His6 and Flag tags (Plasmid A), VL on lambda CL (Plasmid E); also called H: KT & L: RM
# B9: Fab VH5-51_IGHD5-18*01>3_IGHJ4*01 G100K/G104T G24A/S28R/G35V & V3-4_IGLJ1*01 (Fab, V domains shown)
# VH: B4 VH with G24A, S28R, G35V
# VL: B4 VL
# notes: Fab made in E. coli: VH on CH1 with His6 and Flag tags (Plasmid A), VL on lambda CL (Plasmid E); also called H: KT ARV & L: wt
# Target: T1, recombinant human DLL4 (Cat# 1506-D4/CF, R&D Systems) (human, UniProt Q9NR61 27-529)
# T1 construct: Bought protein; also called hDLL4; rHuman DLL4
# Test: ELISA, DLL4 coated, Fab 20 nM
# Experimental: (§1) The plate was blocked by adding 1% BSA in Tris-buffered Saline Tween (TBST) and incubating for 1 hour at room temperature followed by washing 2 times with 150 μl TBST. A Fab antibody was serially diluted in 1% BSA in PBS. A 50 μl aliquot of each serial dilution was added, in triplicate, to each well and the plate was incubated for 1 hour at room temperature followed by washing 2 times with TBST. 50 μl of either goat anti-human kappa HRP conjugated secondary antibody (Cat # A7164-1 mL, Sigma-Aldrich) or goat anti-human lambda HRP conjugated secondary antibody (Cat # L1645-1 ml, Sigma-Aldrich), diluted 1:1000 in 1% BSA in PBS, was added to each well and the plate was incubated for 30 minutes at room temperature followed by washing 3 times with 200 μl TBST. Finally, 50 μl TMB one-component reagent (Cat # TMBW-1000-01, BioFax) was added and allowed to develop for 2 minutes at room temperature. The reaction was immediately halted by the addition of 50 μl 0.5M H₂SO₄ and the absorbance at 450 nm was measured using an ELISA plate reader.
row,ELISA absorbance at 450 nm,Binder
1,0.979 A450,B1
2,1.01 A450,B2
3,0.863 A450,B3
4,0.018 A450,B4
5,0.122 A450,B5
6,0.009 A450,B6
7,0.027 A450,B7
8,0.087 A450,B8
9,0.054 A450,B9

# Target: T1, recombinant human DLL4 (Cat# …)
# Test: ELISA, DLL4 coated, Fab 25 nM
# Experimental: as §1
row,ELISA absorbance at 450 nm,Binder
1,0.16 A450,B4
2,0.2 A450,B6

# Target: T1, recombinant human DLL4 (Cat# …)
# Test: ELISA, DLL4 coated, Fab 50 nM
# Experimental: (§2) In this example, an ELISA binding assay was used to assess the dose-dependent binding of Fab antibodies to recombinant human DLL4 and recombinant mouse DLL4.
# as §1
row,ELISA absorbance at 450 nm,Binder
1,0.18 A450,B4
2,0.23 A450,B6

# Target: T1, recombinant human DLL4 (Cat# …)
# Test: ELISA, DLL4 coated, Fab 100 nM
# Experimental: as §2, §1
row,ELISA absorbance at 450 nm,Binder
1,0.18 A450,B4
2,0.26 A450,B6

# Target: T1, recombinant human DLL4 (Cat# …)
# Test: ELISA, DLL4 coated, Fab 0.74 nM
# Experimental: as §1
row,ELISA absorbance at 450 nm,Binder
1,0.288 A450,B1
2,0.368 A450,B2
3,0.27 A450,B3
4,0.019 A450,B4
5,0.006 A450,B5
6,0 A450,B6
7,0.006 A450,B7
8,0 A450,B8
9,0.008 A450,B9

# Target: T1, recombinant human DLL4 (Cat# …)
# Test: ELISA, DLL4 coated, Fab 2.22 nM
# Experimental: as §1
row,ELISA absorbance at 450 nm,Binder
1,0.608 A450,B1
2,0.594 A450,B2
3,0.463 A450,B3
4,0.014 A450,B4
5,0.028 A450,B5
6,0 A450,B6
7,0 A450,B7
8,0.007 A450,B8
9,0.002 A450,B9

# Target: T1, recombinant human DLL4 (Cat# …)
# Test: ELISA, DLL4 coated, Fab 6.67 nM
# Experimental: as §1
row,ELISA absorbance at 450 nm,Binder
1,0.776 A450,B1
2,0.88 A450,B2
3,0.739 A450,B3
4,0.042 A450,B4
5,0.062 A450,B5
6,0.003 A450,B6
7,0.005 A450,B7
8,0.023 A450,B8
9,0.025 A450,B9

# Target: T1, recombinant human DLL4 (Cat# …)
# Test: ELISA, DLL4 coated, Fab 12.5 nM
# Experimental: as §2, §1
row,ELISA absorbance at 450 nm,Binder
1,0.18 A450,B4
2,0.18 A450,B6

# Target: T1, recombinant human DLL4 (Cat# …)
# Test: SPR (ProteOn), hDLL4 amine-coupled on chip
# Experimental: In this example, the binding affinities of selected anti-DLL4 Fabs to recombinant human DLL4 (hDLL4, Cat# 1506-D4/CF, R&D Systems) were analyzed using Surface Plasmon Resonance (SPR) (Biosensor Tools, Salt Lake City, Utah). The Fabs analyzed include germline-derived antibodies and germline-modified DLL4 antibodies. Recombinant hDLL4 was immobilized on a SPR chip using amine coupling at three different surface densities. The Fabs were serially diluted 3-fold, with an initial concentration of 1 μM. Binding studies were run on a ProteOn system using a GLM sensor chip in 10 mM HEPES, pH 7.4, 150 mM NaCl, 0.01% Tween-20, and 0.1 mg/ml BSA at 25° C. The response data from each surface was globally fit to determine the binding constants.
Kd,koff,kon,Binder
2.7 nM,0.00113 s⁻¹,430000 M⁻¹ s⁻¹,B1
40.3 nM,0.101 s⁻¹,2.53e+06 M⁻¹ s⁻¹,B5
114 nM,0.0845 s⁻¹,740000 M⁻¹ s⁻¹,B6
